Assay results: the domain aggregation screens of Martell et al. (2025)

Assay: soluble fraction after stress (log2 fold change); higher = more stays soluble; pooled small domains, quantitative proteomics
Conditions: stress: pH 4
Summary of the method: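 Values are log2 fold changes, and higher ones mean more of the domain stayed soluble. Each fold change reflects the soluble amount of a domain after acid stress and is taken as a measure of aggregation propensity. The stress was pH 4, applied to pooled custom libraries of small protein domains analysed by high-throughput quantitative proteomics.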

Sequence | soluble fraction (log2)
HMYQPLRDVIFETLRKAIVSGDIKPGERLMEVSLANQMGVSRTPVREAIRRLEAEGLVTMTPRKGTHVAE | -0.215
HMYQRLPFSFANRYKMVLESQHPERAPILYYVEPLKSAAIIEVSRVVKNGFTPQAITLDEFDKKLTDAYQR | -0.0881
HMYRLSPSWRIVERDDGFEIYGGDDARFQLDPSPLVSRLAAGDAVTRDGLDPTGAIEFEQLLSAGMIRPEI | -0.829
HMYRYTTFKVKEADTLLPFIQKSLNGISHNRAKAILTGGGVLVDKKITRAYDFALRPGMTVEISKSKP | ≥ 0.43
HMYRYYSTLRPITPGAYPKPADNPAMLIHNFDNREYVGKIGREAWGYVEYNNPLTKEQIEAFDFVAE | -0.0236
HMYSDIERAMTNAPEQFANKQAVLDFLNKNRIKKSEVDDYRIASLLKLYDDASPISKTEIISQVRT | -0.0708
HMYSDQRMEIFLEHLPDFIEQLSHKHVTRQMVWEDYRMIYPDGYGKSQFFFHLAQNLKAQKP | -0.489
HMYSYSFTSSEGSTFEGQLIRVEESQVTILRYADQKEFSIPKSRFIEADQVYFERWAIENPQL | -2.88
HMYSYSGSVSNTHDVPVSVVLKDAEGVAIASWDLQAKQSLNISAKDIATSSGTIEITGDGVSETKTVTFTK | -0.229
HMYTVKELSRLTGLTPRTLRYYDAIGLLSPARNRDNDYRLYGGAEVDRLQEILLYREMGLPLEEIGRILD | -0.491
HMYTVQPHESLWSIAASQLGDGHRFTEIVDLNQELLGGKANFIKPGWVLQIP | -0.911
HMYTVVVGDSPSLIADKTGVPLKELTAMNPNLSDNFLPGKQLL | -0.076
HMYVEVPNFIGVPLVKVQSELASLGLVFNKSVVYQTSPYLKGNILDQRPLPGEVVPLNTEMSFTVSSGPA | -0.686
HMYVKIAADAAMPYTIKRVVTDYSSAALDAAYDGSLPKWLTISSSTKDAGSGLYRHEIIYTVTAHPE | -0.942
HMYVYEPGEFAVRGSILDVYSYASEFPYRIDFFGDDVESIRTFEVQTQLSKEAKDRVSIVPDTEQ | -0.585
HMYYNDEELDGYRGTPSDAYSDNAVEEFREVLYTLREDEVSGWVRSLQLRGIFLPDAIKDETFLI | -1.84
HMYYTAPDGRKREILDAALRLIAAGGPDSLTYRRVADEAGVPLGSLTYYFEAREDLIREAFRLYIAEASR | -1.6
